The record followed here is US6383734.

Data set [1] addresses Raf-CR3[D338E339], P04049.
The target in data set [2] is Raf-CR3 (wild type), recombinant Raf-1 catalytic fragment, calmodulin binding protein fusion, P04049.
Data set [3] addresses Raf-CR3[A338A339], P04049.
A further data set deals with T1, Raf-1 (331-345) peptide.
T1 chain: RPRGQRDSSFFWEIE

B1: full-length PAK3 from rat spleen lysate (protein)
chain: SDNGELEDKPPAPPVRMSSTIFSTGGKDPLSANHSLKPLPSVPEEKKPRNKIISIFSSTEKGSKKKEKERPEISPPSDFEHTIHVGFDAVTGEFTGMPEQWARLLQTSNITKLEQKKNPQAVLDVLKFYDSNTVKQKYLSFTPPEKDGFPSGTPALNTKGSETSAVVTEEDDDDEDAAPPVIAPRPDHTKSIYTRSVIDPIPAPVGDSNVDSGAKSSDKQKKKAKMTDEEIMEKLRTIVSIGDPKKKYTRYEKIGQGASGTVFTATDVALGQEVAIKQINLQKQPKKELIINEILVMKELKNPNIVNFLDSYLVGDELFVVMEYLAGGSLTDVVTETCMDEAQIAAVCRECLQALEFLHANQVIHRDIKSDNVLLGMEGSVKLTDFGFCAQITPEQSKRSTMVGTPYWMAPEVVTRKAYGPKVDIWSLGIMAIEMVEGEPPYLNENPLRALYLIATNGTPELQNPEKLSPIFRDFLNRCLEMDVEKRGSAKELLQHPFLKLAKPLSSLTPLILAAKEAMKSNR
For B1, the “phosphate incorporation into Raf-CR3” value in data set [1] was “reduced ability of immunoprecipitated PAK3 to phosphorylate the Raf-CR3[A338,A339] or Raf-CR3[D338,E339] mutant proteins”; in data set [2] it was 4-fold more phosphate into wild type Raf-CR3 than into the non-phosphorylatable Raf-CR3[D338E339] or Raf-CR3[A338A339] site mutants; in data set [3] it was “reduced ability of immunoprecipitated PAK3 to phosphorylate the Raf-CR3[A338,A339] or Raf-CR3[D338,E339] mutant proteins”.

B2: recombinant His-tagged mouse PAK3 from Sf9 cells (protein)
chain: MSDSLDNEEKPPAPPLRMNSNNRDSSALNHSSKPLPMAPEEKNKKARLRSIFPGGGDKTNKKKEKERPEISLPSDFEHTIHVGFDAVTGEFTGIPEQWARLLQTSNITKLEQKKNPQAVLDVLKFYDSKETVNNQKYMSFTSGDKSAHGYIAAHQSNTKTASEPPLAPPVSEEEDEEEEEEEDDNEPPPVIAPRPEHTKSIYTRSVVESIASPAAPNKEDIPPSAENANSTTLYRNTDRQRKKSKMTDEEILEKLRSIVSVGDPKKKYTRFEKIGQGASGTVYTALDIATGQEVAIKQMNLQQQPKKELIINEILVMRENKNPNIVNYLDSYLVGDELWVVMEYLAGGSLTDVVTETCMDEGQIAAVCRECLQALDFLHSNQVIHRDIKSDNILLGMDGSVKLTDFGFCAQITPEQSKRSTMVGTPYWMAPEVVTRKAYGPKVDIWSLGIMAIEMVEGEPPYLNENPLRALYLIATNGTPELQNPERLSAVFRDFLNRCLEMDVDRRGSAKELLQHPFLKLAKPLSSLTPLIIAAKEAIKNSSR
On to B2, for which the “phosphorylation of the Raf-1 peptide” value with Raf-1 (331-345) peptide was “Recombinant His-tagged mouse PAK3 from Sf9 cells phosphorylated the Raf-1 peptide”. Moreover, the “phosphorylation of Raf-CR3” value in data set [2] is listed as “strongly phosphorylated wild type Raf-CR3”.
